The results in this text go back to the RNAGym collection of RNA variant scans (doi:10.7554/elife.80360).

B1: Hairpin Ribozyme (parent)
chain: GUCCUCUUUCACGUGCGCGUGAAAGAGAGAAGUGAACCAGAGAAACACACGUUGUGGUAUAUUACCUGGUA

In the data set the parent is B1. Put plainly: self-cleavage, relative activity (ratio to wild type); higher = more cleavage; co-transcriptional.
In the case of UUGCUCUUUCACGUGCGCGUGAAAGAGAGAAGUGAACCAGAGAAACACACGUUGUGGUAUAUUACCUGGUA, the self-cleavage amounted to 0.122.
As to UUACUCUUUCACGUGCGCGUGAAAGAGAGAAGUGAACCAGAGAAACACACGUUGUGGUAUAUUACCUGGUA, the self-cleavage was 0.161.
Next, UUCCUCUUUCACGUGCGCGUGAAUGAGAGAAGUGAACCAGAGAAACACACGUUGUGGUAUAUUACCUGGUA: 0.117.
Under UUCCUCUUUCACGUGCGCAUGAAAGAGAGAAGUGAACCAGAGAAACACACGUUGUGGUAUAUUACCUGGUA stands 0.208; under CUCCUCUUUCACGUGCGCGUGAAAGAGAGAAGUGAACCAGAGAAACACACGUUGUGCUAUAUUACCUGGUA, 0.118; under CUCCUCUUUCACGUGCGCGUGAAAGAGAGAAGUGAACCAGAGAAACACACGUUGUGAUAUAUUACCUGGUA, 0.134.
With UUCCUCUUUCACGUGCGGGUGAAAGAGAGAAGUGAACCAGAGAAACACACGUUGUGGUAUAUUACCUGGUA, the self-cleavage came to 0.131.
Under UUCCUCUUUCACGUGCGCGUGAAAGAGAGAAGUGAACCAGAGAAACACACGUUGUGGUAUUUUACCUGGUA stands 0.116; under UUCCUCUUUCACGUGCGCGUGAAAGAGAGAAGUGAACCAGAGAAACACACGUUGUGGUAUCUUACCUGGUA, 0.0683; under UUCCUCUUUCACGUGCGCGUGAAAGAGAGAAGUGAACCAGAGAAACACACGUUGUGGUAUGUUACCUGGUA, 0.041.
Under CUCCUCUUUCACGUGCGCGUGAAAGAGAGAAGUGAACCAGAGAAACACACGUUGUGGUAUAUUACCCGGUA stands 0.119; under CUCCUCUUUCACGUGCGCGUGAAAGAGAGAAGUGAACCAGAGAAACACACUUUGUGGUAUAUUACCUGGUA, 0.181; under CUCCUCUUUCACGUGCGCGUGAAAGAGAGAAGUGAACCAGAGAAACACACCUUGUGGUAUAUUACCUGGUA, 0.0946.
Under UUCCUCUUUCACGUGCGCGUGAAAGAGAGAAGUGAACCAGAGAAACUCACGUUGUGGUAUAUUACCUGGUA stands 0.0955; under UUCCUCUUUCACUUGCGCGUGAAAGAGAGAAGUGAACCAGAGAAACACACGUUGUGGUAUAUUACCUGGUA, 0.156.
Regarding UUCCUCUUUCACCUGCGCGUGAAAGAGAGAAGUGAACCAGAGAAACACACGUUGUGGUAUAUUACCUGGUA, the self-cleavage turned out to be 0.151.
Under UUCCUCUUUGACGUGCGCGUGAAAGAGAGAAGUGAACCAGAGAAACACACGUUGUGGUAUAUUACCUGGUA stands 0.231; under CUCCUCUUUCACGUGCGCGUGAAAGAGAGAAGUGAACCAGAGAAACACACGUUGUGGUAUAUUACCUGUUA, 0.144.
Under CUCCUCUUUCACGUGCGCGUGAAAGAGAGAAGUGAACCAGAGAAACACACGUUGUGGUAUAUUACCUGAUA stands 0.141; under CUCCUCUUUCACGUGCGCGUGAAAGAGAGAAGUGAACCAGAGAAACACACGUUGUGGUAUAUUACCUAGUA, 0.362; under UUCCUCUUUCACGUGCGCGUGAAAGAGAGAAGUGAACCAGAGAAACACACGUUGUUGUAUAUUACCUGGUA, 0.0984.
Under UUCCUUUUUCACGUGCGCGUGAAAGAGAGAAGUGAACCAGAGAAACACACGUUGUGGUAUAUUACCUGGUA stands 0.139; under CUCCUCUUUCACGUGCGCGUGAAAGAGAGAAGUGAACCAGAGAAACACACGCUGUGGUAUAUUACCUGGUA, 0.132; under UUCCUCUUUCACGUGCGCGUGAAAGAGAGAAGUAAACCAGAGAAACACACGUUGUGGUAUAUUACCUGGUA, 0.143.
Regarding UUCCUCUUUCACGUGCGCGUGAAAGAGAGAAGUUAACCAGAGAAACACACGUUGUGGUAUAUUACCUGGUA, the self-cleavage came out at 0.19.
Under CUCCUCUUUCACGUGCGCGUGAAAGAGAGAAGUGAACCAGAGAAACACACGUUGUGGGAUAUUACCUGGUA stands 0.284; under UUCCUCUUUCACGUGCGCGUGAAAGAGAGAAGUGAACCAGAGAAACACACGUUCUGGUAUAUUACCUGGUA, 0.176.
Next, UUCCUCUUUCACGUGCGCGUGAAAGAGAGAAGUGAACCAGAGAAACACACGUUGUGGUAUAUUACCUGAUA: 0.0764; CUCCUCUUUCACGUGCGCGUGAAAGAGAGAAGUGAACCAGAGAAACACACGUAGUGGUAUAUUACCUGGUA: 0.2.
Next, CUCCUCUUUCACGUGCGCGUGAAAGAGAGAAGUGAACCAGACAAACACACGUUGUGGUAUAUUACCUGGUA: 0.272; UUCCUCUUUCACGUGCGCGUGAAAGAGAGAAGUGAACCAGGGAAACACACGUUGUGGUAUAUUACCUGGUA: 0.0954; CUCCUCUUUCACGUGCGCGUGAAAGAGAGAAGUGAACCACAGAAACACACGUUGUGGUAUAUUACCUGGUA: 0.0947.
CUCCUCUUUCACGUGCGCGCGAAAGAGAGAAGUGAACCAGAGAAACACACGUUGUGGUAUAUUACCUGGUA: the self-cleavage is 0.241.
Next, CUCCUCUUUCACGUGCGCGUGAAAGAGAGAAAUGAACCAGAGAAACACACGUUGUGGUAUAUUACCUGGUA: 0.198; UUCCUCUUUCACGUGCGCGUGAAAGAAAGAAGUGAACCAGAGAAACACACGUUGUGGUAUAUUACCUGGUA: 0.148.
Consider CUCCUCUUUCACGUGCGCGUGAAAGAGAGAAGUGAACCAGAGAAACACACGUUGAGGUAUAUUACCUGGUA, for which the self-cleavage was determined as 0.0884.
Next, CUCCUCUUUCACGUGCGCGUGAAAGAGAGAAGUGAACCAGAGAAACACACGUUGCGGUAUAUUACCUGGUA: 0.18; UUCCUCUUUCACGUGCGCGUGAAAGAGAGAAGUGAACCAGAGAAACACACGUUGUGGUAUAUUAGCUGGUA: 0.236.
